One experiment deals with neural stem cell. The experiment can be described thus: DA and 5-HT in dialysate of neural stem cell medium after NGF induction (microdialysis, HPLC-ED). The class given is cell-based. Particulars: after induction with polyornithine/laminin-coating plate and NGF of neural stem cell. The procedure: (§1) A microdialysis system consists of a basic microdialysis pump (CMA/100, CMA, Stockholm, Sweden), a fraction collector (CMA/140, CMA), and a microdialysis probe cemented to a Petri dish (FIG. 3). The dialysis probe was made of a dialysis membrane 30 mm in length, 150 μm in outer diameter, and a nominal molecular weight cutoff of 13,000. Ringer solution (8.6 g/L NaCl, 0.3 g/L KCl, and 0.33 g/L CaCl2) was perfused through the probe at a flow rate of 2 μl/min. Microdialysate samples were collected every 10 min. Each microdialysate of 10 μl was injected manually into the chromatographic system and was assayed on the same sampling day. The Liquid chromatography and electrochemical detection contains a model HTEC-500 LC-ED system (Eicom, Kyoto, Japan), consisting of a three-electrode cell with Ag/AgCl as the reference electrode, a counter-electrode, and a graphite electrode as the working electrode, were used to measure dopamine (DA) and serotonin (5-HT). The experiment employed a graphite working electrode with a 25-μm gasket with the applied potential set at +450 mV versus Ag/AgCl. The column used for the separation of DA and 5-HT was a PP-ODS column (4.6×30 mm, Eicom) at room temperature (25° C.). […]

A further experiment relates to PC-12 cells. The experiment in a line: DA and 5-HT in dialysate of PC-12 cells medium after NGF induction (HPLC-ED). The class given is cell-based. The following applies: after induction with NGF of PC-12 cells. The procedure: as §1
The next experiment deals with Bcl-2. The experiment in a line: Bcl-2 protein expression in NSCs by western blot and immunocytochemistry. Particulars: treatment with either agent alone. The class given is cell-based, rat. The protocol:
After the treatment with IM, the cell lysates of the NSCs were collected and the concentration of protein was determined by using the Protein Assay kit (Bio-Rad, Hercules, Calif., USA). Cell extracts with sample buffer were boiled for 5 minutes and then separated by 10% SDS-PAGE gel. After electrophoresis, the gel was transferred onto a PVDF membrane for immunoblotting. The membrane was first blocked by incubation in non-fat milk at room temperature for 2 hours, then incubated with anti-Bcl-2 antibody (Upstate Biotechnology Inc, Waltham, Mass., USA), and anti-β actin (Chemicon International Inc, Temecula, Calif., USA) for 2 hours at room temperature, washed five times with Tris-Buffered Saline Tween-20 (TBST), and then incubated further at room temperature with horseradish peroxidase-conjugated secondary antibody for 2 hours. Then the membrane was washed six times with TBST and specific bands were made visible by chemiluminescence (Santa Cruz Biotechnology, Santa Cruz, Calif., USA).
(§2) Double-stranded, short interfering RNA (siRNA) of BDNF and Bcl-2 were chemically synthesized by Ambion Inc., Austin, Tex., USA). The sense and antisense sequences of BDNF were designed as follows: Sense: […]tt; Antisense: AGCTTAAAAAGAG CTGtt, starting from nucleotide 137 of the Bcl-2 sequence (accession number L14680). The sense and antisense sequences of Bcl-2 were designed as follows: Sense: GCGCUGGAUAUAACUUCUUtt; Antisense: AAGAAGUUAUAUC CAGCGCtt, starting from nucleotide 137 of the Bcl-2 sequence (accession number L14680). In this test, the siRNA control used was siRNA-Cy3 (QIAGEN; sense sequence: UUCUCCGAACGUGU CACGUdTdT-3′-Cy3 and the complement 5′-ACGUGACACGUUCGGAGAAdTdT-3′-Cy3) as an irrelevant control. The transfection of siRNA was performed using Lipofectamine 2000 (Invitrogen, Carlsbad, Calif., USA) according to the manufacturer's instructions. In brief, cells were harvested with 0.25% trypsin, 1 mM ethylenediaminetetraacetic acid (EDTA) in phosphate buffered saline (PBS) without Ca^2+ and Mg^2+, and plated in six-well plates at 10^5 per cm^2. Then 3.5 μl siRNA (100 μM solution) was mixed with 125 μl serum-free culture medium for 5 minutes at room temperature. During this incubation period, 5 μl of Lipofectamine 2000 was diluted in 125 μl serum-free culture medium. These two mixtures were combined, mixed gently, and incubated for 20 minutes at room temperature for complex formation. This 250 μl of siRNA-Lipofectamine mixture was then added into the cells in a final volume of 2.5 ml per well. The transfected cells were cultured and fed daily with fresh medium until they were assayed.
An avidin-biotin complex method was used for the immunohistochemical staining in the differentiated NSCs. Following washes with the 3% hydrogen peroxide, sodium azide and antigens were retrieved using a microwave. Each slide was then treated with antibodies for Bcl-2 (Upstate Biotechnology, Waltham, Mass., USA), Nestin (Chemicon, Temecula, Calif., USA), 4′, 6-diamidino-2-phenylindole (DAPI; Chemicon, Temecula, Calif., USA) and MAP2 (Chemicon, Temecula, Calif., USA). Immunoreactive signals were detected with a mixture of biotinylated rabbit anti-mouse IgG and Fluoresave (Calbiochem, La Jolla, Calif., USA) under confocal microscopy (Olympus, FV300). Each individual sample was analyzed in triplicate. Furthermore, apoptotic cells were identified by the TUNEL method (In Situ Cell Death Detection Kit, POD, Roche Boehringer Mannheim Corp., IN, USA) as described in Chiou et al., J. Immunol. 167, 4098-4103, 2001. Briefly, the cells with cover slips were washed with 1× phosphate buffered saline (PBS), fixed with 4% of paraformaldehyde for 10 minutes, permeabilized with 0.1% of triton X-100 for 5 mins, and incubated with the TUNEL reagent provided for 1 hour. Chromogenic development was then applied with 3-amino-9-ethyl-carbazole, and slides were counterstained with H & E stain. […]
(In general: In western blotting, separated proteins are transferred to a membrane and probed.)

The test system of experiment [1] is LPS-treated NSCs. The experiment can be described thus: Cell survival rate of LPS-treated NSCs. Format: cell-based, rat. The following applies: vs only LPS-treated NSCs; LPS 100 ng/ml. The procedure: (§3) IM was purchased from Sigma Chem. Co., St Louis, Mo., USA. NSCs were seeded on 24-well plates at a density of 2×10^4 cells/well in medium, followed by methyl thiazol tetrazolium assay (MTT assay) (Sigma-Aldrich Co., St Louis, Mo., USA) for cell viability. NSCs were incubated with 0.25 mg/ml MTT for 4 hours at 37° C. and the reaction was terminated by the addition of 100% isopropanol. The amount of MTT fromazon product was determined using a microplate reader and the absorbance was measured at 560 nm (SpectraMax 250, Molecular Devices, Sunnyvale, Calif., USA). NSCs were exposed to 0, 1, 2, 5, 10, 20, 30, 40, 50, 100, 200, and 300 μM of IM for 1, 3, 5, and 7 days, respectively. The activities of caspases 8 and 3 (Medical and Biological Laboratories Co., Ltd., Nagoya, Japan), and the concentration of IL-6, IL-1 and TNF-α (Pharmingen, San Diego, Calif., USA) were determined by ELISA kits and quantified by reading at 490 nm (MRX; Dynatech Laboratories, Chantilly, Va., USA). Each individual sample was analyzed in triplicate.
as §2, with “Then 3.5 μl siRNA (100 μM solution) was mixed with 125 μl serum-free culture medium for 5 minutes at room temperature. During this incubation period, 5 μl of Lipofectamine 2000 was diluted in 125 μl serum-free culture medium. These two mixtures were combined, mixed gently, and incubated for 20 minutes at room temperature for complex formation. This 250 μl of siRNA-Lipofectamine mixture was then added into the cells in a final volume of 2.5 ml per well. The transfected cells were cultured and fed daily with fresh medium until they were assayed.” left out

Experiment [2] has as its system LPS-treated NSCs. The experiment in a line: LPS-induced apoptotic activity in NSCs, caspase 8 and 3 ELISA. Format: cell-based, rat. Particulars: vs only LPS-treated NSCs; p<0.05. The procedure:
as §3, §2
For orientation: In an ELISA, binding on a coated surface is turned into a signal by an enzyme label.

Experiment [3] concerns LPS-treated NSCs. The experiment in a line: ELISA of IL-1β, IL-6 and TNF-α in LPS-treated NSCs. The class given is cell-based, rat. Particulars: vs only LPS-treated NSCs; IM 3 μM; p<0.05. The protocol:
as §3, §2

For the molecule “NGF: NGF used to induce neural stem cells / PC-12 cells”, the figures for the “5-HT concentration in dialysate” value in the experiment with neural stem cell (basal 0.18 ng/ml) and with PC-12 cells (basal 0.18 ng/ml) were 2.84 ng/mL and 2.94 ng/mL, respectively. Moreover, the “DA concentration in dialysate” value with neural stem cell (basal 6.04 ng/ml) came out at 46.9 ng/mL; in the experiment on PC-12 cells (basal 6.04 ng/ml), 50.06 ng/mL.

B1: BDNF: BDNF recombinant protein (protein, UniProt P23560 19-247, looked up)
Neurotrophic factor BDNF …: APMKEANIRGQGGLAYPGVRTHGTLESVNGPKAGSRGLTSLADTFEHVIEELLDEDQKVRPNEENNKDADLYTSRVMLSSQVPLEPPLLFLLEEYKNYLDAANMSMRVRRHSDPARRGELSVCDSISEWVTAADKKTAVDMSGGTVTVLEKVPVSKGQLKQYFYETKCNPMGYTKEGCRGIDKRHWNSQCRTTQSYVRALTMDSKKRIGWRFIRIDTSCVCTLTIKRGR
With B1, the “Bcl-2 expression in NSCs” value with Bcl-2 was “activate”. For the same molecule, the “cell survival rate in LPS-treated NSCs” value in the experiment with LPS-treated NSCs [1] is listed as “significantly increases”. The “apoptotic activities in LPS-treated NSCs” value with LPS-treated NSCs [2] is given as “significantly inhibited”. For the same molecule, in the experiment with LPS-treated NSCs [3], the “IL-1β production in LPS-treated NSCs” value is reported as “significantly inhibited”, the “IL-6 production in LPS-treated NSCs” value was “significantly inhibited” and the “TNF-α production in LPS-treated NSCs” value is on record as “significantly inhibited”.
